Results taken from patent publication US20070077578A1, “Diagnosis of (a risk of ) disease and monitoring of therapy” (PrimaGen Holding B.V., priority 2004, published 2007).

Tested on: AC133
Experiment: AC133 expression per 10,000 cells (quantified by U1A) in patients treated with GCSF
Type: in vivo, human
Conditions: two patients treated with GCSF, compared to volunteers and all the other patients
Protocol: Isolation of nucleic acids from PBMC and NASBA amplification were performed as described in Example 2 with one modification: U1A was used instead of Beta Actin.
Two samples of patients who have been subjected to treatment with GCSF were tested. GCSF mobilizes stem cells from the bone marrow, so it is expected to find more AC133-expressing cells in the blood after a treatment with GCSF. It is clear from FIG. 16 that the AC133 expression in these two patients is much higher compared to volunteers and all the other patients.

B1: GCSF: mobilizes stem cells from the bone marrow (protein, UniProt P09919 31-207, looked up)
Granulocyte …: TPLGPASSLPQSFLLKCLEQVRKIQGDGAALQEKLVSECATYKLCHPEELVLLGHSLGIPWAPLSSCPSQALQLAGCLSQLHSGLFLYQGLLQALEGISPELGPTLDTLQLDVADFATTIWQQMEELGMAPALQPTQGAMPAFASAFQRRAGGVLVASHLQSFLEVSYRVLRHLAQP
AC133 expression per 10,000 cells: much higher
